According to IntAct's records for PubMed 31585087:

B1: GRB2-associated-binding protein 1 (Homo sapiens), Q13480 (parent)
chain: MSGGEVVCSGWLRKSPPEKKLKRYAWKRRWFVLRSGRLTGDPDVLEYYKNDHAKKPIRIIDLNLCQQVDAGLTFNKKEFENSYIFDINTIDRIFYLVADSEEEMNKWVRCICDICGFNPTEEDPVKPPGSSLQAPADLPLAINTAPPSTQADSSSATLPPPYQLINVPPHLETLGIQEDPQDYLLLINCQSKKPEPTRTHADSAKSTSSETDCNDNVPSHKNPASSQSKHGMNGFFQQQMIYDSPPSRAPSASVDSSLYNLPRSYSHDVLPKVSPSSTEADGELYVFNTPSGTSSVETQMRHVSISYDIPPTPGNTYQIPRTFPEGTLGQTSKLDTIPDIPPPRPPKPHPAHDRSPVETCSIPRTASDTDSSYCIPTAGMSPSRSNTISTVDLNKLRKDASSQDCYDIPRAFPSDRSSSLEGFHNHFKVKNVLTVGSVSSEELDENYVPMNPNSPPRQHSSSFTEPIQEANYVPMTPGTFDFSSFGMQVPPPAHMGFRSSPKTPPRRPVPVADCEPPPVDRNLKPDRKVKPAPLEIKPLPEWEELQAPVRSPITRSFARDSSRFPMSPRPDSVHSTTSSSDSHDSEENYVPMNPNLSSEDPNLFGSNSLDGGSSPMIKPKGDKQVEYLDLDLDSGKSTPPRKQKSSGSGSSVADERVDYVVVDQQKTLALKSTREAWTDGRQSTESETPAKSVK
partner: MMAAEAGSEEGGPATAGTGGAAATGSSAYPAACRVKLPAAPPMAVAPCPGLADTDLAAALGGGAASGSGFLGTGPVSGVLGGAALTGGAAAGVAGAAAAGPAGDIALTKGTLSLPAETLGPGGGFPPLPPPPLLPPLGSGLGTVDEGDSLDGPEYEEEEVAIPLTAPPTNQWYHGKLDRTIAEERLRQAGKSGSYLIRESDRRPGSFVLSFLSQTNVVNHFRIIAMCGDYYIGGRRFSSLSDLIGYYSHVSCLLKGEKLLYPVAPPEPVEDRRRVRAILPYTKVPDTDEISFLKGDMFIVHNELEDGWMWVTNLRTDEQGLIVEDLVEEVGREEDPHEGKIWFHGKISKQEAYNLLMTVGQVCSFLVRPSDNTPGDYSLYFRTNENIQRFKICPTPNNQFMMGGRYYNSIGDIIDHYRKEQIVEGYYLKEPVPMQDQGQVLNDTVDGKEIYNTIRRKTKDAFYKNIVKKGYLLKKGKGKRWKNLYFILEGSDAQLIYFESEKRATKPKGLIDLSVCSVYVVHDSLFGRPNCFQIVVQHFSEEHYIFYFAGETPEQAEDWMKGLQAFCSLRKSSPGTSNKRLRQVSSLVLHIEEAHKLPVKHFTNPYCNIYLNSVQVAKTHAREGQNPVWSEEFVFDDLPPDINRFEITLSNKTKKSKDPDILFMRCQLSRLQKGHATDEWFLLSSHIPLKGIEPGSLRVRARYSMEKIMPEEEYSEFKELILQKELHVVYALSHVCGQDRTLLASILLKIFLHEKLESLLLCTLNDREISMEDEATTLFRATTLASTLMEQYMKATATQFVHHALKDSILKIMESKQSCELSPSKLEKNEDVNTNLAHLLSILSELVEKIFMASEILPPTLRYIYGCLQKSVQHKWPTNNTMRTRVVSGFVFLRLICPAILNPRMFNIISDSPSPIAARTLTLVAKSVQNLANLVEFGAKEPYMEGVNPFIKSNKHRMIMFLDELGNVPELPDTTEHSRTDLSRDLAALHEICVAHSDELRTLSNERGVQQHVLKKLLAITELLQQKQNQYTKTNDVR

Variants of: B1
Settings: with rasa1_rat Rasa1, P50904

effect of a mutation on the interaction | Variant
disrupting interaction strength | P320S
